# Assay results from publication PMC10691330.
# Columns and labels:
# Test in all cases: packaging into virions
# [1] = target: HIV-1 P capsid protein (p24) (HIV-1 group P)
# [2] = target: HIV-1 O capsid protein (p24) (HIV-1 group O)
# [3] = target: HIV-1 N capsid protein (p24) (HIV-1 group N)
# [4] = target: HIV-1 M capsid protein (p24) (HIV-1 group M)
# HA-tagged cyclophilin A (CYPA-HA), sequence (P62937 whole entry): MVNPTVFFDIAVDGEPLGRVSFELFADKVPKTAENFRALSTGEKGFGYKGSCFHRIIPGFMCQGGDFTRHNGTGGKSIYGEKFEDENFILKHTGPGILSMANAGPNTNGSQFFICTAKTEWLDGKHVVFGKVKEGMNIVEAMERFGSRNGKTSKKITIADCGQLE
substance,measurement,setting,value
HA-tagged cyclophilin A (CYPA-HA) (from UniProt P62937 1-165) (natural protein),percent reduction of virion-associated CYPA by 1 µM CsA,[1],70%
same,percent reduction of virion-associated CYPA by 1 µM CsA,[2],70%
same,percent reduction of virion-associated CYPA by 1 µM CsA,[3],70%
same,percent reduction of virion-associated CYPA by 1 µM CsA,[4],40%
